Experimental data taken from patent US20120316071A1 (published 2012).
Numbering of substitutions follows the chain as printed. Names and notes keep the numbering of the source. Blank lines part the entries; values can stand above or below the binder they belong to.

Experiments:
[1] = target: T1, Recombinant Human DLL4 (R&D Systems Cat#1506-D4/CF) (human, UniProt Q9NR61 27-524); test: MSD Multispot ECL, antigen spotted on plate, Fab at 60 nM; blank spot 237
T1 construct: Bought recombinant protein; also called rHuman DLL4; delta-like protein 4

[2] = target: T2, rHuman Notch-1/Fc Chimera, CF (R&D Systems Cat#3647-TK) (human, UniProt P46531 19-526); test: as above
T2 construct: Bought Fc chimera; Fc part of the bought chimera not given

[3] = target: T3, rHuman CD44/Fc Chimera, CF (R&D Systems Cat#3660-CD) (human, UniProt P16070 21-220); test: as above
T3 construct: Bought Fc chimera; Fc part of the bought chimera not given

[4] = target: T4, rHuman P-Cadherin/Fc Chimera, CF (R&D Systems Cat#861-PC) (human, UniProt P22223 108-654); test: as above
T4 construct: Bought Fc chimera; Fc part of the bought chimera not given

[5] = target: T5, rHuman Erythropoietin R/Fc Chimera, CF (R&D Systems Cat#963-ER) (human, UniProt P19235 25-250); test: as above
T5 construct: Bought Fc chimera; also called EPO R/Fc; Epo R; Fc part of the bought chimera not given
T5 sequence (looked up): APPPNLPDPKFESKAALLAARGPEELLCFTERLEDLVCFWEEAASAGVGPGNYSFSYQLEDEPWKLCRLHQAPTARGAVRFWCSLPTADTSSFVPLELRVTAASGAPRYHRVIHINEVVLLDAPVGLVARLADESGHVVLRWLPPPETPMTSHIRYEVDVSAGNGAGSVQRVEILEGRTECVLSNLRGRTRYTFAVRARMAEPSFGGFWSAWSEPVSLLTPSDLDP

[6] = target: T6, rHuman IGF-1 sR, CF (R&D Systems Cat#391-GR) (human, UniProt P08069 31-932); test: ECL Multispot (MSD) assay, antigen spotted on plate, 10 nM Fab; blank spot of this row 472
T6 construct: Bought soluble receptor; The column head prints only 'IGF-1'; also called insulin-like growth factor-1 soluble receptor

[7] = target: T7, rHuman P-Cadherin/Fc Chimera, CF (R&D Systems Cat#861-PC) (human, UniProt P22223 108-654); test: as above
T7 construct: Bought reagent; Fc part of the bought chimera not given

[8] = target: T8, rHuman Erythropoietin R/Fc Chimera, CF (R&D Systems Cat#963-ER) (human, UniProt P19235 25-250); test: as above
T8 construct: Bought reagent; also called EPO R; EPO R/Fc; Fc part of the bought chimera not given
T8 sequence (looked up): T5 sequence (looked up)

[9] = target: T9, rHuman ErbB2/Fc Chimera, CF (R&D Systems Cat#1129-ER) (human, UniProt P04626 23-652); test: as above
T9 construct: Bought reagent; also called human epidermal growth factor 2 receptor; Fc part of the bought chimera not given

[10] = target: T10, rHuman EGF R/Fc Chimera, CF (R&D Systems Cat#344-ER) (human, UniProt P00533 25-645); test: as above
T10 construct: Bought reagent; also called epidermal growth factor receptor; Fc part of the bought chimera not given

[11] = target: T11, rHuman Notch-1/Fc Chimera, CF (R&D Systems Cat#3647-TK) (human, UniProt P46531 19-526); test: Multispot ECL (MSD), antigen spotted on plate, Fab 62.5 nM; blank spot 268
T11 construct: Bought recombinant protein; Fc part of the bought chimera not given

[12] = target: T12, rHuman Erythropoietin R/Fc Chimera, CF (R&D Systems Cat#963-ER) (human, UniProt P19235 25-250); test: MSD Multispot ECL, antigen spotted on plate, Fab 130 nM; blank spot 1153
T12 construct: Bought reagent; also called EPO R/Fc; EPO R; Fc part of the bought chimera not given
T12 sequence (looked up): T5 sequence (looked up)

[13] = target: T13, Recombinant Human DLL4 (R&D Systems Cat#1506-D4/CF) (human, UniProt Q9NR61 27-529); test: as above
T13 construct: Bought recombinant protein; also called rHuman DLL4; delta-like protein 4

[14] = target: T14, rHuman ErbB2/Fc Chimera, CF (R&D Systems Cat#1129-ER) (human, UniProt P04626 23-652); test: as above
T14 construct: Bought reagent; also called human epidermal growth factor 2 receptor; Fc part of the bought chimera not given

[15] = target: T15, rHuman EGF R/Fc Chimera, CF (R&D Systems Cat#344-ER) (human, UniProt P00533 25-645); test: as above
T15 construct: Bought reagent; also called epidermal growth factor receptor; Fc part of the bought chimera not given

[16] = target: T16, rHuman HGF R/c-MET/Fc Chimera, CF (R&D Systems Cat#358-MT/CF) (human, UniProt P08581 25-932); test: as above
T16 construct: Bought reagent; also called HGF R/Fc; hepatocyte growth factor receptor; Fc part of the bought chimera not given

[17] = target: T17, rHuman Notch-1/Fc Chimera, CF (R&D Systems Cat#3647-TK) (human, UniProt P46531 19-526); test: as above
T17 construct: Bought reagent; Fc part of the bought chimera not given

[18] = target: T18, rHuman CD44/Fc Chimera, CF (R&D Systems Cat#3660-CD) (human, UniProt P16070 21-220); test: as above
T18 construct: Bought reagent; Fc part of the bought chimera not given

[19] = target: T19, rHuman IGF-1 sR, (IGF-1 sR), CF (R&D Systems Cat#391-GR) (human, UniProt P08069 31-932); test: as above
T19 construct: Bought soluble receptor; also called insulin-like growth factor-1 soluble receptor

T16 sequence (P08581 25-932, change not shown): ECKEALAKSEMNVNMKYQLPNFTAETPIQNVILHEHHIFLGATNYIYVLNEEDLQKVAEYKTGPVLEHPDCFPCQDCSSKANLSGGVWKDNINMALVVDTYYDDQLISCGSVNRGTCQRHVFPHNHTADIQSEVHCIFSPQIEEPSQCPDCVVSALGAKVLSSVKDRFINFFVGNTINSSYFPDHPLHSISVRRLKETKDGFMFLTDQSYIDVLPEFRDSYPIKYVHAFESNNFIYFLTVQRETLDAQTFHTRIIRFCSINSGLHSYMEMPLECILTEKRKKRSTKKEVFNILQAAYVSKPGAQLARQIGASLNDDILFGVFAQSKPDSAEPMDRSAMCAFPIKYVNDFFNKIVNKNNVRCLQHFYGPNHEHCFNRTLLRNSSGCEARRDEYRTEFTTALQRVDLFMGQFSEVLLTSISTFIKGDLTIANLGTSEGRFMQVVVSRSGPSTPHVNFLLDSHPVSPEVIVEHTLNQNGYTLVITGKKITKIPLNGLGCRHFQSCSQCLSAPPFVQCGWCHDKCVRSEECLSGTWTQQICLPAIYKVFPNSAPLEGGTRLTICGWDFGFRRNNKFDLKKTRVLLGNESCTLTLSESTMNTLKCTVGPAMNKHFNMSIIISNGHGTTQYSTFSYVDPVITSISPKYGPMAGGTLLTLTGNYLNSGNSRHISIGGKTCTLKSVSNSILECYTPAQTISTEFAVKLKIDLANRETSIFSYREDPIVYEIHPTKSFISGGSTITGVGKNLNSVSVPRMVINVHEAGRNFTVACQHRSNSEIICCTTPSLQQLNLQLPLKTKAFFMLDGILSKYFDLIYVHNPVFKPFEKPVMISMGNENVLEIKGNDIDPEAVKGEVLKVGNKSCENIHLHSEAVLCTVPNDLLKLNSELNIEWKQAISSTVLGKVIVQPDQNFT

ECL signal [1]: 875
ECL signal [2]: 415
ECL signal [3]: 434
ECL signal [4]: 372
ECL signal [5]: 423
B1: Fab VH6-1_IGHD3-3*01_IGHJ4*01 & V4-3_IGLJ4*01 (Fab, V domains shown)
VH: QVQLQQSGPGLVKPSQTLSLTCAISGDSVSSNSAAWNWIRQSPSRGLEWLGRTYYRSKWYNDYAVSVKSRITINPDTSKNQFSLQLNSVTPEDTAVYYCAREYYDFWSGYYTDYFDYWGQGTLVTVSS
VL: QPVLTQPTSLSASPGASARLTCTLRSGINLGSYRIFWYQQKPESPPRYLLSYYSDSSKHQGSGVPSRFSGSKDASSNAGILVISGLQSEDEADYYCMIWHSSASFVFGGGTQLIIL
notes: Tested as a purified germline Fab made in E. coli; The VH was cloned into plasmid A (CH1 constant region, His6 and Flag tags) and the lambda VL into plasmid E (lambda CL)

ECL signal [6]: 434
ECL signal [7]: 433
ECL signal [8]: 480
ECL signal [9]: 391
ECL signal [10]: 428
B2: Fab VH1-46_IGHD6-6*01_IGHJ1*01 S102A/S103P/S104F (APF) & L6_IGKJ1*01 (Fab, V domains shown)
VH: QVQLVQSGAEVKKPGASVKVSCKASGYTFTSYYMHWVRQAPGQGLEWMGIINPSGGSTSYAQKFQGRVTMTRDTSTSTVYMELSSLRSEDTAVYYCAREEYAPFSAEYFQHWGQGTLVTVSS
VL: not shown
notes: Tested as a Fab made in E. coli; also called H:APF & L:wt; APF triple mutant

ECL signal [11]: 536
B3: Fab VH1-46_IGHD6-13*01_IGHJ4*01 & B3_IGKJ1*01 (Fab, V domains shown)
VH: B2 VH with E100G, A102S, P103S, F104S, S105W, A106Y, E107D, Q110D, H111Y
VL: not shown
notes: Germline Fab made in E. coli; VH was cloned into Plasmid A (CH1, His6 and Flag tags) and the kappa VL into Plasmid C (kappa CL)

ECL signal [12]: 2150
ECL signal [13]: 7740
ECL signal [14]: 1530
ECL signal [15]: 1750
ECL signal [16]: 1880
ECL signal [17]: 1760
ECL signal [18]: 1750
ECL signal [19]: 1970
B4: Fab VH1-8_IGHD2-2*01_IGHJ6*01 & L12_IGKJ1*01 (Fab, V domains shown)
VH: QVQLVQSGAEVKKPGASVKVSCKASGYTFTSYDINWVRQATGQGLEWMGWMNPNSGNTGYAQKFQGRVTMTRNTSISTAYMELSSLRSEDTAVYYCARGGYCSSTSCYADYYYYYGMDVWGQGTTVTVSS
VL: not shown
